Values of other authors, collected in US11590205B2, “Methods for producing stable therapeutic glucagon formulations in aprotic polar solvents” (Xeris Pharmaceuticals, Inc., priority 2015, dated 2023).

Conditions: aqueous

## glucagon
  solubility at neutral pH: essentially insoluble
